In the DeepSol protein solubility set:

Assay: soluble on expression in E. coli; label from the status in PepcDB or PDB records

Sequence | soluble on expression in E. coli
MGSDKIHHHHHHCGVEEKTEVQLLKEMPKPKAMTIDPSLSQKEATEMVHAAQRFYAFWDTGKEELIPQTVTENFFDHTLPKGRPQGTEGLKFAAQNFRKIVPNIHCEIEDLLVVGDKVTARLSFTGTHNDKKIDFFAIDILHVKDGKITEDWHLEDNLTLKQQLGLIAEE | not soluble
MGSDKIHHHHHHCPVNWVEFGGSCYWFSRDGLTWAEADQYCQLENAHLLVINSREEQDFVVKHRSQFHIWIGLTDRDGSWKWVDGTDYRSNYRNWAFTQPDNWQGHEQGGGEDCAEILSDGHWNDNFCQQVNRWVCEKRR | not soluble
MGSDKIHHHHHHCSDNDSDLTIYIPDAGTAVKANFYIEDEPYVQTFNVAVTPETYPQLTEYGLPNDAVVHLQADPGKVDEYNAKNGTEYELLPEAAYDLTEEVLVKAGTPKSEEAVITVHAKGNIEAFKEYLLPVSITSVEGAVADHCCQTIYFIFRGSMDASNMELLDRTGWEALSASSEEPKEGDWGHSGLKEACLDGDLNTFWGTDWSTQHPQPPHWIVIDLKKTTHIQGFACQAREEGYDGPKEVTVEVSDDNATWTVAAKFKDIPAQGEFRSFLPAAVDGRYLKVTITAVNGGPHVTISELNLF | not soluble
MGSDKIHHHHHHCTHKYKIEGTSSVNGLDGKMLYLKTLRDGEWTKLDSAEVVHGSFSMKGKIDSVQMTTLYMDDESVMPVVLESGKIVITISNTDLKAVGTPLNTALYDFIAKKNAMEESIGELERKETRMVMDGADLEEVHEQLLAEGDSLMKAMNQYVKTFISDNYENVLGPNVFIMLCSSLPYPIMTPQIDDIIKDAPYSFKSNKMVREFLTKAKENMQLIEEHQRMQQNVGSKK | not soluble
MGSDKIHHHHHHDDSVFTVMDDPSAAKKPFEGVVNAGYLAQSGNTKSSSMTADSTLTWYGNTTAWSLWGNASNTSSNDERSSEKYAVGGRSRYNLTDMNYVFGQGSWLTDRYNGYQQRDVVTAGYGRQILNGPVHSLRFEFGPGVRYDEYTDGDTDTQPLGYASGTWAWQMTDNAKFSQGVSVFGAEDTTVNSESALNVAINAHFALKVAYNVTWNSEPPASAPEHTDRRTSLSLGYKM | not soluble
MGSDKIHHHHHHEDDLSAKAWLKNMSQAMHDKQYKTSIIQLQADHIRPLVYIHGIVDNKEVALLEYLNGPPKNAVRVGNTVTFIEHDQPAYSVVAPRIQGIWPAALAGDLSQLEKGYQFVIGGRGRIAGRPGQMIRLLANDDNRYDAQVWIDMDTYLPLRFDSLNKEKQLLEQTMVIELIELTEPANILIEAAKQEWPAVMNQAERTDGKNWQFTWLPEGFDVVVRDHHRLIGIHEPVEYVALTDGLANISVYVARAGENPMPNELLIRNGLSMVVVKVGTLEVVAIGKVPSETLDKIANSLVLK | not soluble
MGSDKIHHHHHHEEAEAHQKPVEIQPETVKIARNSELTIVPLYTPYQKYLKASLKTDDPEMDKKYYAKYVLSYIDEIGEQEKFSTADLKGNFMLQSTSYEQELLNRIDTLMKQHDKIKEVITENYIAAHKILPKKKSTIFIVPSNSDFPTMSESLAGVTGAAYKDAFVLYLDQTFDKNVLAYTIAHEYHHLILHDTPDFKISSVLKSVIVEGKADAFADRIVKGVSPPWDVPMDNTTKKHVAGLVNNYETTFNDVTFGNEQKDIPRWSNYILGRDILNHYLKSNPNLSIKEWTYKDEHEILKDYKYQNILE | not soluble
MGSDKIHHHHHHENLYFQGMFRPQDDFTYLMPVHFGGGKFDPETLVTQKATALSLSFETERDLLENYIPEGFELLAPEVQVAFNKFTEINWLHGGQYNLINVAAPVRFHGKKDELDGAYTLVVWENKTAPILGGREQTGIPKIYADIEDLHIVRPHFATTVSYEGNTFLNMDFEATGSITGRDLDALKSQFLTMNTLGWRYIPKVGAPGAELSQFVLYPQGMEVETAEVGKGSLKWTELTPMQSPAQYYIVNSLASLPIKRVTQAVLVEGRAILRAMGARVIE | soluble
MGSDKIHHHHHHENLYFQGMKQIPQDFRLIEDFFRTRRSVRKFIDRPVEEEKLMAILEAGRIAPSAHNYQPWHFLVVREEEGRKRLAPCSQQPWFPGAPIYIITLGDHQRAWKRGAGDSVDIDTSIAMTYMMLEAHSLGLGCTWVCAFDQALCSEIFDIPSHMTPVSILALGYGDPTVPPREAFNRKTIEEVVSFEKL | soluble
MGSDKIHHHHHHEQTVKIGILSDMSGPYSDMGGPGSVAAAQLAIDECLAKECKGMKIELLSIDHQNKPDIGVQKAREWADVNKVNAIADLTNSAVALGVQKLTLDHDFVAMYSGPATTKLTNEDCSATGFHWMFDTYALAAGSAQAITKMGGKSWYFLTVDYAFGHSLEADSMAMVKQLGGTVAGSVRHPLNTADMSSFLLQAQSSKAQVVALANGAADTINAIKTAREFGIVQGGQQVVPLLIFLTDIRSLGLEIAQGLTFTEGFYWDQDDQARAFAARFQKAFKDRKPTMVQAGTYSSVLHYLHAVAAAKTTEAKAVSAKMREMPISDAVMRNAAIRPDGRVIHDMLLVKVKSPAESKGDWDFYTIQATIPAAEAFKPLANSACPTVKK | not soluble
MGSDKIHHHHHHGCSRRDILDDYPVSGVEVRLDWSGVTEKLPEGVRIIFYPKDEKGRKIDTYLSVTGGEVKVPSGHYAVVIYNYDTETVLIRGEESYETIQAYTNFCKLGIAGTEKMVWGPDPLYVVNIDDLDIQNSEETLILKLKPKLVIRTYSFSIKVQGLSNVSNVIGSIGGMADHYFLGKAYAMCDDYPINIDLNVKAGKIEGVFTTFGLPEAIITRLEIKLPVMMNLMIIKVDNSVQEVKINITEAVQEPTGGGEGGEGEETKPPALVEVEIEDEIKVDDVETPPSGGGGIGGDVGDWDDETNVELPVG | not soluble
MGSDKIHHHHHHGDDDDPVVPELNKLTKVSCYKDGASSPLFTADINYTSDGKISNINLGVDKLLFIYSDGKFSVTGIHSGEVIEEYTLSGNVITSKKISQENPYASNEIYVSDEYSYRYSGSNWVLTSWNARWPKEFGTGYEERSYPEYEKYTWENGNVVLYAQSLDSREMRYEYSVAEAPKNFPLRVIGSFSPVGFESVTPLNLLYGIQNRNLPIRAYTYTIPNQSEVKAEYKYTYTTVGDYITGMTIDENDGGTASSYKYTFEYNFAVK | not soluble
MGSDKIHHHHHHGKGQQPSEENEDPKAKEILQGIWLDDETETPLMRIIGDTIYYSDAQSAPVYFKILKDTLYTYGKDVTHYQIDKQSEYSFWFHSLADNIIKLHKSEDPNDTLAFSFKSVEIIPTYTEVTKKDSVVMFDGVRYRAYVYINPSQMKVVKTTYSEDGISMDNIYYDNVMHICVYEGKKSLYAKDITKQMFVDVIPTDFLQQAILSDMNFIGIDRKGYHYQALVCIPESPVCNLVNLTISFDGKLNITAAKYK | not soluble
MGSDKIHHHHHHGVDTKGPAGIDATELYASLDLSLLVGNSNVTTKSSELTGPTDGTEENMTKDERSVSDCYIAIFKYDSKTKNVGDFLTSYYSSNGSISESLIFKIPKDKSERTDLKIVVIANAAASVSKYGLASASQISYADLKGKTLVEVPNVFVKVGETEIAKGDGGTYPDNKGGVYVNISEKILGLDQPANTPVEVKLIQRTAAIMLQQFKILKSDGTEYDNVEIKGLSLLNSKTIGQVAGEVSSGEKLYGMQSVNGTTERLYSYENTSSSQPTTLKIDYVYNNGETGSCSFPIKSRLSEASDPKAEVWAGYLYKLTVKLTNAAVDVTVKCVTQDWVFNKDHELEFTF | not soluble
MGSDKIHHHHHHHLKTQAISFVIHFAHRPVKRYDSPLSFLCSRRVQKIKIMLRATSLFITLGLSHSAWALVPPDYQEPPSDFSAEIEAGLQINTGNTESSSFNGRTKLVYDTDKFRQEGVFKAYFASDSEKTTSEKYDVQLQSSYKIYSGYIFARGDFTEDRFGSYTRISTVSTGYGFDAISGDSTKLSLEVGPGYRYNLPQVSESVPDPEADREIILRTAAKFEQKIHEYTSFNADLTAETGEANNTVTLDMSYKNTLFQDWAFKIGMNIKYTEVVPEGSKQTDTVTTFNLLYTFK | not soluble
MGSDKIHHHHHHHVETIKNTFLNPKSNKVLVVAHRGNWRSAPENSTAAIDSAIAMKVDIVEIDIQKTKDGQLILMHDNTLDRTTTGKGEIKNWTLADIKKLKLKDKDGKVTNYVVPTLEEALLTAKGKIMVNLDKAYDIFDDVYAILEKTETQNQVIMKGGQPIETVKREFGSYLDKVLYMPVIDLGNKEAEKIITDYLKELRPAAFEIIYSDPKNPLPPKIKQLLFKKSLIWYNTLWGSLAGNHDDNLALTDPEKSYGYLIEQLGARILQTDQPAYLLDYLRKKGWHN | not soluble
